Laboratory results as given in patent publication US20130143793A1 (ZEALAND PHARMA A S, published 2013).
Read-outs that look alike come from different tables or passages of the source. Square brackets hold non-standard residues; d marks the D form. Ends that are not written are not given here.

T1: mouse CCK-B receptor (mouse, UniProt P56481 1-453)
T1 sequence (looked up): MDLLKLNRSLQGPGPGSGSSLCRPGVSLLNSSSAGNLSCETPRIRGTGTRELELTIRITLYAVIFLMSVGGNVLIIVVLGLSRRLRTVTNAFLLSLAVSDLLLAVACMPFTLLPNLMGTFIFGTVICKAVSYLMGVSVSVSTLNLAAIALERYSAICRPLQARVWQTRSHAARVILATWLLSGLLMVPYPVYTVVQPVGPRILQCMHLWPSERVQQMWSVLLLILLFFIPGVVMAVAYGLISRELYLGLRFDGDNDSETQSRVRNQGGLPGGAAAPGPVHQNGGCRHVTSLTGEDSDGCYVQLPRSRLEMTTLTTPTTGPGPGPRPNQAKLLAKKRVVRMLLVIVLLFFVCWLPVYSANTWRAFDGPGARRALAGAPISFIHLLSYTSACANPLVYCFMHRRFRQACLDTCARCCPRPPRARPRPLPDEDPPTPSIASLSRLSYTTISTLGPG

T2: human CCK-B receptor (human, UniProt P32239 1-447)
T2 sequence (looked up): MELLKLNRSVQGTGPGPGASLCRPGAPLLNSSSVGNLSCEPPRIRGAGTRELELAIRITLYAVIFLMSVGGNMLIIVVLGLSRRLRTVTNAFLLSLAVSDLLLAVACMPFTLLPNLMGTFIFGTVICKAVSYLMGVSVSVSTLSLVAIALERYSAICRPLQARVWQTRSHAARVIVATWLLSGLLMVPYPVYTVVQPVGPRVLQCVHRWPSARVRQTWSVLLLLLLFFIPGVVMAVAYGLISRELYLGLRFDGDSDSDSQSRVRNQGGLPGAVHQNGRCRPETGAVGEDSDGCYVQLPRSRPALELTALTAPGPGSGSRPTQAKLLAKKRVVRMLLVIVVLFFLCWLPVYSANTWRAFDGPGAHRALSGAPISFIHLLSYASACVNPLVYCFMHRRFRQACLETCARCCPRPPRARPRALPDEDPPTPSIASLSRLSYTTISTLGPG


Tests used:
Assay in all cases: cell-based or functional assay
[1] = biological target: T1, mouse CCK-B receptor
[2] = biological target: T3, human GLP-1 receptor (human, UniProt P43220 24-463)
Target sequence in this assay (P43220 24-463): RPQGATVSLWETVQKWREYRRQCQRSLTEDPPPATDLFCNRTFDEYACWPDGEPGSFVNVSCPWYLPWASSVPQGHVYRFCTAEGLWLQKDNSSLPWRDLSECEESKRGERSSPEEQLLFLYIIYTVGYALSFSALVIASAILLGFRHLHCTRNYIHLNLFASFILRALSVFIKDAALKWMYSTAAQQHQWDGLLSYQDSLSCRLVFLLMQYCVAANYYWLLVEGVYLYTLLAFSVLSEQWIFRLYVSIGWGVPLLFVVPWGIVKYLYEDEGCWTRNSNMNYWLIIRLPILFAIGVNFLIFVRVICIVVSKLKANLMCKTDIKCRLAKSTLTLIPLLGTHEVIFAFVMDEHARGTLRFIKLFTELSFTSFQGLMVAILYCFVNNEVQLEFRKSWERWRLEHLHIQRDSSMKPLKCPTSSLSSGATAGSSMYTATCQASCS

[3] = biological target: T2, human CCK-B receptor
[4] = biological target: T1, mouse CCK-B receptor; remark: listed apart in the source
[5] = biological target: T3, human GLP-1 receptor; remark: listed apart in the source
Target sequence in this assay (P43220 24-463): as above

[6] = biological target: T2, human CCK-B receptor; remark: listed apart in the source
[7] = biological target: T3, human GLP-1 receptor; remark: listed apart in the source
[8] = biological target: T2, human CCK-B receptor; remark: listed apart in the source

Molecule	mCCK-B R EC50 (p-ERK) [1] [nM]	hGLP-1 R EC50 (cAMP) [2] [pM]	hCCK-B R EC50 (p-ERK) [3] [nM]	mCCK-B R EC50 (p-ERK) [4] [nM]	hGLP-1 R EC50 (cAMP) [5] [pM]	hCCK-B R EC50 (p-ERK) [6] [nM]	hGLP-1 R EC50 (cAMP) [7] [pM]	hCCK-B R EC50 (p-ERK) [8] [nM]
GLP-1(7-36)-AAA-[Gln1,Leu15]Gastrin17 (peptide)	54	34	19	54.1	114	18.8		
[Lys(Hexadecanoyl-isoGlu)26]GLP-1(7-37)-Peg3-Peg3-[Leu4]Gastrin6 (peptide)			26					
CCK-8 (from UniProt P06307 96-103) (peptide)	160			163				
h[Gln1,Leu15]Gastrin17 (peptide)	18			18.2				
GLP-1(7-36)-8Aoc-8Aoc-[Gln1,Leu15]Gastrin17 (peptide)	71		13	71.4		12.8		
GLP-1(7-36)-SKK-[Gln1,Leu15]Gastrin17 (peptide)	59	31	16	58.6	116	15.6		
GLP-1(7-36)-[Gln1,Leu15]Gastrin17 (peptide)	73	30	26	73.1	145	25.9		
GLP-1(7-36)-Peg3-SKK-[Gln1,Leu15]Gastrin17 (peptide)	51		8.8	51.1		8.76		
[Arg26,34,Lys(Hexadecanoyl-isoGlu)36]GLP-1(7-37)-Peg3-Peg3-[Leu4]Gastrin6 (peptide)		110	78					
GLP-1(7-36)-DBF-SKK-[Gln1,Leu15]Gastrin17 (peptide)	87		26	86.9		25.7		
[Lys(Hexadecanoyl-isoGlu)34]GLP-1(7-37)-Peg3-Peg3-[Leu4]Gastrin6 (peptide)			18					
[Aib8,Arg34]GLP-1(7-37)-Peg3-Peg3-[Leu4]Gastrin6 (peptide)		43	42					
[Arg34,Lys(Hexadecanoyl-isoGlu)26]GLP-1(7-37)-Peg3-Peg3-[Leu4]Gastrin6 (peptide)			29					
GLP-1(7-36)-K-[Gln1,Leu15]Gastrin17 (peptide)	110	30	77	114	84.2	77.3		
GLP-1(7-36)-Peg3-Peg3-[Gln1,Leu15]Gastrin17 (peptide)	58		8.2	58.3				
h[Leu15]Gastrin17 (from UniProt P01350 76-92) (peptide)			2.4					
[Aib8,Arg34,Lys(Hexadecanoyl-isoGlu)26]GLP-1(7-37)-Peg3-Peg3-[Leu4]Gastrin6 (peptide)		88	59					
[Arg34]GLP-1(7-37)-Peg3-Peg3-[Leu4]Gastrin6 (peptide)			24					
[Arg26,34,Gly8,Lys(Hexadecanoyl-isoGlu)36]GLP-1(7-37)-Peg3-Peg3-[Leu4]Gastrin6 (peptide)		120	29					
GLP-1(7-36)-8Aoc-SKK-[Gln1,Leu15]Gastrin17 (peptide)	83		52	82.5		51.9		
HGEGTFTSDLSKQMEKEAVRLFIEWLKN[Peg3][Peg3]YGWLDF-NH2 [[Lys16]Exendin-4(1-28)-Peg3-Peg3-[Leu4]Gastrin6]							32	15
